Publication PMC9816786 (Molecular Metabolism, 2022)
Blank lines part the entries; values can stand above or below the binder they belong to.

What was measured:
[1] = target: T1, Human CAP1 (cyclase associated protein 1), 6xHis-tagged, purified (human, UniProt Q01518 1-475, biotinylated where it was immobilised for BLI (site not told)); experiment: BLI; biotinylated PCSK9 or biotinylated CHRD immobilised (0.2 μg/ml), CAP1 in solution, pH 7.5, association and dissociation 600 s; settings: both partners purified
T1 construct: human adenylyl cyclase-associated protein 1 (CAP1), cDNA cloned into pCMV; also called adenylyl cyclase-associated protein 1; biotinylated CAP1; source: FreeStyle293 FS cells, transfected, purified (NiNTA, size-exclusion chromatography)
T1 sequence (Q01518 whole entry): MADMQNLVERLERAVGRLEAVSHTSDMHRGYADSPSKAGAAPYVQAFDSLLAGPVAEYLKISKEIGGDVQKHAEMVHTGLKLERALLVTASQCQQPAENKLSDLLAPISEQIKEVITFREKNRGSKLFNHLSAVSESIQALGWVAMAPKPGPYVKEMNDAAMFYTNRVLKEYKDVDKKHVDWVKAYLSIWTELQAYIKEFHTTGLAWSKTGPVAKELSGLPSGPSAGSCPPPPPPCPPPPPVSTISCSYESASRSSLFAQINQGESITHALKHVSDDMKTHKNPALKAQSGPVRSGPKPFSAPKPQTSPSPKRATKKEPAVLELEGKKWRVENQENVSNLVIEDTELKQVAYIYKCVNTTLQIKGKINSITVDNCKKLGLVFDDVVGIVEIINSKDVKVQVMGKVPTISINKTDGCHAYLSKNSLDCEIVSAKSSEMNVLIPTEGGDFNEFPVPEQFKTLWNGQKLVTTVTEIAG

[2] = target: T2, CHRD (aa 449–693) of human PCSK9, 6xHis-tagged (human, UniProt Q8NBP7, biotinylated where it was immobilised for BLI (site not told)); experiment: BLI; biotinylated P1.40 immobilised (0.25 μg/μL), PCSK9 or CHRD in solution, pH 7.5, 1:1 binding model; association 3600 s (PCSK9) or 1800 s (CHRD), dissociation 3600 s; settings: both partners purified
T2 construct: human PCSK9, C-terminal Cys/His-rich domain, aa 449-693 as printed (modules M1 453-529, M2 530-603, M3 604-692); also called C-terminal Cys/His-rich domain; CHRD alone; source: FreeStyle293 FS cells, transfected, purified (NiNTA, size-exclusion chromatography)

[3] = target: T3, Human PCSK9 (full length), 6xHis-tagged, purified (human, UniProt Q8NBP7, biotinylated where it was immobilised for BLI (site not told)); experiment: as above; settings: both partners purified
T3 construct: human PCSK9, full length cDNA in pIRES2-EGFP; also called full-length PCSK9; proprotein convertase substilisin kexin 9; source: FreeStyle293 FS cells, transfected, purified (NiNTA, size-exclusion chromatography)

[4] = target: T3, Human PCSK9 (full length), …; experiment: SEC + other: SAXS; size exclusion chromatography followed by small angle X-ray scattering of PCSK9 alone or in complex with P1.40, in solution; settings: both partners purified
CHRD F456A mutant = target: T4, CHRD F456A mutant (Homo sapiens (Human)., UniProt Q8NBP7, F456A); experiment: flow cytometry on cells; P1.40 or its mutants expressed on yeast cells (HA-tagged), 6xHis-tagged CHRD or its mutants in solution; cell binding assays and FACS sorting for deep mutational scanning; settings: one partner purified
T4 construct: human PCSK9 CHRD, aa 449-693 as printed for the parent construct; source: HEK293 cells

CHRD R476A mutant = target: T5, CHRD R476A mutant (Homo sapiens (Human)., UniProt Q8NBP7, R476A); experiment: as above; settings: one partner purified
T5 construct: human PCSK9 CHRD, aa 449-693 as printed for the parent construct; source: HEK293 cells

CHRD D480A mutant = target: T6, CHRD D480A mutant (Homo sapiens (Human)., UniProt Q8NBP7, D480A); experiment: as above; settings: one partner purified
T6 construct: human PCSK9 CHRD, aa 449-693 as printed for the parent construct; source: HEK293 cells

Kd [1]: 1260 nM
koff [1]: 0.0007 s⁻¹
kon [1]: 560 M⁻¹ s⁻¹
B1: CHRD (aa 449–693) of human PCSK9, 6xHis-tagged (domain or fragment, UniProt Q8NBP7 449-692, looked up)
chain: HGAGWQLFCRTVWSAHSGPTRMATAVARCAPDEELLSCSSFSRSGKRRGERMEAQGGKLVCRAHNAFGGEGVYAIARCCLLPQANCSVHTAPPAEASMGTRVHCHQQGHVLTGCSSHWEVEDLGTHKPPVLRPRGQPNQCVGHREASIHASCCHAPGLECKVKEHGIPAPQEQVTVACEEGWTLTGCSALPGTSHVLGAYAVDNTCVVRSRDVSTTGSTSEGAVTAVAICCRSRHLAQASQELQ
modifications: biotinylated where it was immobilised for BLI (site not told)
notes: human PCSK9, C-terminal Cys/His-rich domain, aa 449-693 as printed (modules M1 453-529, M2 530-603, M3 604-692); also called C-terminal Cys/His-rich domain; CHRD alone; source: FreeStyle293 FS cells, transfected, purified (NiNTA, size-exclusion chromatography)

Kd [2]: 0.0903 nM
koff [2]: 3.5e-05 s⁻¹
kon [2]: 380000 M⁻¹ s⁻¹
Kd [3]: 5.6 nM
koff [3]: 9e-06 s⁻¹
kon [3]: 1600 M⁻¹ s⁻¹
stoichiometry N [4]: 1
B2: P1.40, CHRD-specific single domain antibody (nanobody), purified from E. coli (VHH)
VHH: QVKLEESGGGLVQAGGSLRLSCSPSDRTFSAYAMGWFRQVPGREREFVATIRDSDASIYYTDSVKGRFTISRDNAKNTVYLQMNSLIPDDTAVYYCAARQYYSGRVYSTFREEYDYWGQGTQVTVSS
notes: TEV site ENLYFQ/G: a glycine may be left at the N-terminus after cleavage; also called nanobody P1.40; biotinylated P1.40; source: E. coli BL21 (DE3) pLysS, purified (HisTrap, TEV cleavage, size-exclusion chromatography); not shown: DsbC, N-terminal, cleaved; His6, N-terminal, cleaved

fold decrease of affinity against wild-type CHRD (CHRD F456A mutant): 12 fold
fold decrease of affinity against wild-type CHRD (CHRD R476A mutant): 17 fold
fold decrease of affinity against wild-type CHRD (CHRD D480A mutant): 142 fold
B3: P1.40 expressed on yeast cells (cell surface, HA-tagged) (VHH)
VHH: B2 VHH
